The values that follow come from publication PMC3465527.

The target in one data set is T1, Mss116p MBP-D1 (Saccharomyces cerevisiae? (paper: yeast), UniProt P15424 88-330).
T1 sequence: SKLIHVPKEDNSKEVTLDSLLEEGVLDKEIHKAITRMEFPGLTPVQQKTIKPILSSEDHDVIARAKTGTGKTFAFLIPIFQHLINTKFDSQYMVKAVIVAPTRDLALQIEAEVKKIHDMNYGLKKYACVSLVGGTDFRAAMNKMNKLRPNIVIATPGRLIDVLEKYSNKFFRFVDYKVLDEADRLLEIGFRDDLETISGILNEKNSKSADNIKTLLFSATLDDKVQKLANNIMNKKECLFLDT
Description: EMSA. In general terms: In EMSA bound probe runs differently from free probe, usually more slowly.

The next data set concerns the target T2, Mss116p D2 (with CTE) (Saccharomyces cerevisiae? (paper: yeast), UniProt P15424 342-597).
T2 sequence: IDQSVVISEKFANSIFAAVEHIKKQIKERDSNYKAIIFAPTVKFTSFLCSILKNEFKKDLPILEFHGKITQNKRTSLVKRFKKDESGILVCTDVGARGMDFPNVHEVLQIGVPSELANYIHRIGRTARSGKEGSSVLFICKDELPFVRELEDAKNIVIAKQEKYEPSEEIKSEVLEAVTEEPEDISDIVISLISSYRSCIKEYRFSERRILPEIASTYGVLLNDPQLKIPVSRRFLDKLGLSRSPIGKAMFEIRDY
Description: X-ray crystallography.

B1: FAM-dsRNA 14-bp (dsRNA)
RNA 1: GGGCGGGCCCGCCC
RNA 2: GGGCGGGCCCGCCC
In the case of B1, the binding result in the data set with Mss116p MBP-D1 is on record as “no binding”.

B2: chimeric RNA-DNA duplex 14-bp (mixed)
? 1: GGGCGGGCCCGCCC
? 2: GGGCGGGCCCGCCC
modifications: each strand rGrGrGrCrGrGrGdCdCdCdGdCdCdC: nt 1-7 RNA, nt 8-14 DNA
Consider B2, for which the binding result in the data set with Mss116p D2 (with CTE) is on record as “binds”.
